Source: PMC5738438, “Dynamic intramolecular regulation of the histone chaperone nucleoplasmin controls histone binding and release” (Nature Communications, 2017)

B1: A2 peptide (residues 119–145) (peptide)
chain: MEEDYSWAEEEDEGEEEEEEEEDPESP
B2: Npm core+A2 truncation (1–145) (domain or fragment)
chain: ASTASNTSKVEKPVSLIWGCELNEQNKTFAFKIEDEEEKCEHQLALRTVCLGDKAKDEFHIVEIVTQEEGKEKPVPIASLKPSILPMATMVGIELTPPVTFRLKAGSGPVYISGQHVAMEEDYSWAEEEDEGEEEEEEEEDPESP

Key:
H2A/H2B dimer = H2A/H2B dimer (Xenopus, UniProt P06897 2-123; P02281 1-126); experiment: other fluorescence titration; equilibrium tryptophan (W125) fluorescence, 340/360 ratio; tail or peptide 0.5 µM, histones titrated; 20 mM Tris pH 7.6, 150 mM NaCl, 1 mM EDTA, 1 mM DTT, 0.01% NP-40; single-site model; details: both partners purified
[1] = molecular target: the molecule itself; experiment: SEC-SAXS; complex of core+A2 and H2A/H2B purified by SEC, 4.83 mg/mL on Superdex 200 PC3.2/300, 5 mM DTT; Porod volume

Row | Binder | Kd (H2A/H2B dimer) | stoichiometry N [1]
1 | B1 | < 50 nM | 
2 | B2 |  | 5
